Source: the supplement of paper PMC7125110
± gives the standard error. For part of these data: This sample holds only a part of the variants without activity.

B1: glmS ribozyme (parent)
chain: AUAAAAGCGCCAGAACUACAGAAAUGUAGUUGACGAGGAGGAGGUUUAUCGAAUUUUCGGCGGAUGCCUCCAAA

Experiments:
Details in all cases: with glucosamine-6-phosphate
[1] = variants of: B1; assay: kcat; higher = faster cleavage; RNA array
How it was run: (§1)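 Barcoded glmS ribozyme variants on sequenced MiSeq chips were transcribed in situ by E. coli RNA polymerase and tracked through a hybridised Cy3 probe at 37 °C. Glucosamine-6-phosphate (40 μM to 10 mM) in HEPES/KCl/Mg(OAc)2 buffer was flowed in, and tiles were imaged over ~14 h. Signals were normalised to baseline and to non-cleaving reference variants; per-tile medians were fit to one- or two-exponential decays to give kobs. kcat and KM came from weighted Michaelis–Menten fits across concentrations.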

[2] = variants of: B1; assay: KM; higher = weaker cofactor use; RNA array
How it was run: as §1

[3] = variants of: B1; assay: self-cleavage kobs at 40 uM GlcN6P; higher = faster cleavage; RNA array
How it was run: as §1

[4] = variants of: B1; assay: self-cleavage kobs at 160 uM GlcN6P; higher = faster cleavage; RNA array
How it was run: as §1

[5] = variants of: B1; assay: self-cleavage kobs at 640 uM GlcN6P; higher = faster cleavage; RNA array
How it was run: as §1

[6] = variants of: B1; assay: self-cleavage kobs at 2500 uM GlcN6P; higher = faster cleavage; RNA array
How it was run: as §1

[7] = variants of: B1; assay: self-cleavage kobs at 10000 uM GlcN6P; higher = faster cleavage; RNA array
How it was run: as §1

| Variant | kcat [1] [s⁻¹] | KM [2] [µM] | self-cleavage kobs at 40 uM GlcN6P [3] [s⁻¹] | self-cleavage kobs at 160 uM GlcN6P [4] [s⁻¹] | self-cleavage kobs at 640 uM GlcN6P [5] [s⁻¹] | self-cleavage kobs at 2500 uM GlcN6P [6] [s⁻¹] | self-cleavage kobs at 10000 uM GlcN6P [7] [s⁻¹] |
| --- | --- | --- | --- | --- | --- | --- | --- |
| G44U C67A | 0.0253 ± 0.0035 | 1130 ± 210 | 0.000868 ± 0.0001 | 0.00267 ± 0.00064 | 0.00977 ± 0.0013 | 0.0244 ± 0.0065 | 0.0209 ± 0.0036 |
| U46A U54G C70G | 0.000171 ± 6e-05 |  |  | 6.23e-05 ± 2e-05 | 0.000291 ± 6.7e-05 | 0.000305 ± 6.4e-05 | 0.000127 ± 2.9e-05 |
| G43U A52G | < 1e-05 | 5960 ± 590 | < 1e-05 | < 1e-05 | < 1e-05 |  |  |
| U46G A53U | 0.006 ± 0.0013 | 2190 ± 770 | 0.000116 ± 2.4e-05 |  | 0.00141 ± 0.00032 | 0.00253 ± 0.00059 | 0.00566 ± 0.00098 |
| U46C U49G | 0.000109 ± 8.3e-06 | 817 ± 220 |  |  | 4.66e-05 ± 1.2e-05 | 8.96e-05 ± 1.6e-05 | 9.78e-05 ± 1.5e-05 |
| U45C A53U | 0.0028 ± 0.0008 | 4320 ± 1700 | 4.26e-05 ± 1.2e-05 | 0.000117 ± 2.5e-05 | 0.00031 ± 5e-05 | 0.00109 ± 0.00022 | 0.00199 ± 0.00035 |
| U45A U65C | 0.00412 ± 0.0005 | 1770 ± 290 | 9.95e-05 ± 1.1e-05 | 0.000318 ± 6.3e-05 | 0.000994 ± 0.00014 | 0.00204 ± 0.00054 | 0.00374 ± 0.00047 |
| U46C U55G | 0.00362 ± 0.00063 | 1790 ± 450 | 8.17e-05 ± 2.1e-05 | 0.000255 ± 5.8e-05 | 0.00107 ± 0.00023 | 0.00259 ± 0.00049 | 0.00271 ± 0.00058 |
| U46C U55C | 0.00703 ± 0.0025 | 3630 ± 1700 | 0.000129 ± 1.9e-05 | 0.000217 ± 4.2e-05 | 0.00108 ± 0.00013 | 0.00291 ± 0.00042 | 0.00515 ± 0.00071 |
| U46C C68U | 0.000934 ± 0.0002 | 1480 ± 580 | 2.43e-05 ± 7.6e-06 | 7.49e-05 ± 1.3e-05 | 0.000387 ± 6e-05 | 0.000933 ± 0.00014 | 0.000743 ± 7.7e-05 |
| U46C C68G | 5.04e-05 ± 2e-06 | 811 ± 200 |  |  |  |  | 4.62e-05 ± 1.3e-05 |
| U46G U47G | 0.00226 ± 0.00039 | 1530 ± 410 | 6.82e-05 ± 2e-05 | 0.000208 ± 5.4e-05 | 0.000551 ± 0.00016 | 0.00191 ± 0.00051 | 0.00188 ± 0.00039 |
| U47C C50G | < 1e-05 |  |  |  | < 1e-05 |  |  |
| U46G U65A C71U | 0.00287 ± 0.00028 | 2140 ± 340 | 4.68e-05 ± 1.3e-05 | 0.000191 ± 6.8e-05 | 0.000735 ± 0.00016 | 0.00173 ± 0.00035 | 0.00224 ± 0.00038 |
| U46A C71U | 0.00396 ± 0.00074 | 2020 ± 580 | 8.79e-05 ± 1.3e-05 | 0.000232 ± 6.3e-05 | 0.000874 ± 0.00015 | 0.00353 ± 0.00069 | 0.00319 ± 0.00037 |
| U47C A52G | 0.000596 ± 8.2e-05 | 3550 ± 750 |  | 3.5e-05 ± 1.7e-05 | 9.21e-05 ± 1.5e-05 | 0.000226 ± 4.3e-05 | 0.000465 ± 8.9e-05 |
| U45C A48U | 7.71e-05 ± 4.6e-06 | 628 ± 170 |  |  |  | 6.49e-05 ± 1.5e-05 | 6.96e-05 ± 1.9e-05 |
| U47C U49G | 0.000198 ± 1.4e-05 | 1240 ± 220 |  |  | 6.46e-05 ± 1.7e-05 | 0.000146 ± 3.2e-05 | 0.000169 ± 3.6e-05 |
| U47C C68G | 6.88e-05 ± 2.3e-06 | 573 ± 80 |  |  | 3.62e-05 ± 7.3e-06 | 5.33e-05 ± 1.1e-05 | 6.6e-05 ± 7.8e-06 |
| U47C G63A | < 1e-05 |  |  |  | < 1e-05 |  |  |
| U46A C50U C58A C71G | 1.07e-05 ± 3e-06 |  |  |  |  |  |  |
| U46G A52U | 0.000165 ± 1.2e-05 |  | < 1e-05 | < 1e-05 |  | 2.87e-05 ± 1.3e-05 | 7.51e-05 ± 2.1e-05 |
| U47A C71G | 0.000753 ± 9.5e-05 | 1130 ± 300 | 2.61e-05 ± 8.5e-06 | 0.000142 ± 4.2e-05 | 0.000227 ± 5.2e-05 | 0.00055 ± 0.00011 | 0.000682 ± 9.3e-05 |
| G43U C67G | 0.00171 ± 0.00015 | 1020 ± 150 | 7.18e-05 ± 1e-05 | 0.00022 ± 6e-05 | 0.000597 ± 8.6e-05 | 0.00117 ± 0.0002 | 0.00166 ± 0.00022 |
| U47C G66U | 2.83e-05 ± 1.3e-05 |  | < 1e-05 |  |  |  |  |
| U47C G66A | 0.00207 ± 0.00059 | 1050 ± 470 | 0.000111 ± 2.1e-05 | 0.00017 ± 6.1e-05 | 0.000815 ± 0.0002 | 0.00159 ± 0.00037 | 0.00183 ± 0.0004 |
| U47G A64G | 0.0089 ± 0.0018 | 1570 ± 460 | 0.000278 ± 4.5e-05 | 0.000742 ± 0.00017 | 0.00203 ± 0.00049 | 0.00542 ± 0.0013 | 0.00828 ± 0.0015 |
| U47G A64U | 2.76e-05 ± 3.5e-06 |  |  |  |  |  |  |
| G44C C70U | < 1e-05 |  | < 1e-05 |  |  |  |  |
